According to PMC5253651, “Human farnesyl pyrophosphate synthase is allosterically inhibited by its own product” (Nature Communications, 2017):

Substrate: C=C(C)CCO[P@@](=O)(O)OP(=O)(O)O
Assay: purified protein, by the assay type
Settings: other: saturating excess of GPP (∼500-fold over enzyme, 10-fold over IPP), steady-state equation accounting for product inhibition, Kp 6 μM, 30 °C, pH 7.5

B1: human FPPS (Homo sapiens) (protein)
chain: MNGDQNSDVYAQEKQDFVQHFSQIVRVLTEDEMGHPEIGDAIARLKEVLEYNAIGGKYNRGLTVVVAFRELVEPRKQDADSLQRAWTVGWCVELLQAFFLVADDIMDSSLTRRGQICWYQKPGVGLDAINDANLLEACIYRLLKLYCREQPYYLNLIELFLQSSYQTEIGQTLDLLTAPQGNVDLVRFTEKRYKSIVKYKTAFYSFYLPIAAAMYMAGIDGEKEHANAKKILLEMGEFFQIQDDYLDLFGDPSVTGKIGTDIQDNKCSWLVVQCLQRATPEQYQILKENYGQKEAEKVARVKALYEELDLPAVFLQYEEDSYSHIMALIEQYAAPLPPAVFLGLARKIYKRRK
For B1, the Km was 1.1 µM.
